The subject of one data set is Namalwa cells (CD10pos). The experiment in a line: cells. The class given is cell-based. The following applies: ratio of IC50. The protocol:
Suspension cells, BALL-1, Ramos and Namalwa cells were cultured in RPMI media containing 10% heat inactivated fetal calf serum (FCS). On the day of the study, the cells were collected, washed and resuspended at a concentration of 0.5×10^6 cells/ml in RPMI containing 10% FCS. 100 µl of cell suspension was added to 96 well plates. […] Finally 10 μl of a 100 μCi/ml ^3H-thymidine was added per well and the plates were incubated for 24 hours. The plates were harvested using a 96 well Harvester (Packard Instruments) and counted on a Packard Top Count counter. Four parameter logistic curves were fitted to the ^3H-thymidine incorporation as a function of drug molarity using Prism software to determine IC50 values.

The subject of data set [1] is LNCaP prostate carcinoma xenograft. Briefly: LNCaP prostate carcinoma xenograft in nude mice, Q7D × 3 (Examples 30, 31). Here is the method:
In this model, 7.5 million LNCaP cells resuspended in 0.1 ml of phosphate buffered saline and 0.1 ml of Matrigel (Becton Dickinson) were injected into the side of male nude mice fed on high fat diet.

Data set [2] can be described thus: Pharmacokinetic/metabolism study, single IV bolus.
Protocol: Plasma was obtained from three individual animals in each group at 5 minutes, 1, 2, 4, or 6 hr.
Data set [3] is described as follows: Metabolism and clearance in normal mice (plasma and urine, LC MS/MS). The class given is in vivo. The following applies: mouse, in vivo, iv, 117 mg/kg. Here is the method: The metabolism and clearance of Suc-Ile-Ala-Leu-Dox was studied in normal mice. The mice were administered Suc-Ile-Ala-Leu-Dox at a single intravenous bolus dose of 117 mg/kg. Plasma samples were obtained at 1 and 4 hours. Plasma samples of 100 μl were transferred to microcentrifuge tubes (1.5 mL) and an internal standard of daunorubicin (20 μL at 0.5 mg/ml) was added together with acetonitrile (400 μl). The tubes were capped and briefly vortexed followed by centrifugation at 14,000 rpm. 420 μl from each tube was removed and dried in vacuo. Each sample was reconstituted in 65 μl 20 mM aqueous ammonium formate pH 4.5 buffer (AF) containing acetonitrile (20%) prior to analysis by reverse phase liquid chromatography in combination with tandem mass spectrometry (LC MS/MS).
Urine was collected at 2 and 24 hours post administration from pairs of mice in metabolic cages. Urine samples were diluted with AF containing acetonitrile (20%) to give a target analyte concentration within the practical range of the LC MS/MS assay. 30 μl of each diluted sample was placed in an Eppendorf tube (1.5 ml) and an internal standard of daunorubicin (20 μL at 0.5 mg/ml) was added together with 50 μl of AF containing acetonitrile (20%). Each sample was then analyzed by LC MS/MS.
An Agilent HP1100 HPLC with DAD detector and Chemstation software was coupled to a PE Sciex API 365 mass spectrometer with an electrospray ion source. HPLC was performed on a TSK-Gel Super ODS, […], 4.6×50 mm (TosoHaas) reversed phase column equipped with a […] C18 guard disc (Higgins Analytical) and stainless steel frit (Upchurch Scientific). Chromatography was performed at room temperature. The flow rate was 0.5 ml/min. Injection volume was 50 μL. Gradient elution was performed using a mobile phase of 20 mM aqueous AF pH 4.5 buffer with increasing amounts of acetonitrile. The API 365 was operated at 365° C. in a multiple reaction monitoring mode, set to monitor specific analyte parent-daughter ion pairs. Integration of chromatograms was performed by MacQuant software (PE Sciex) and quantitation of each analyte obtained by comparison to previously obtained calibration curves. Daunorubicin was used as an internal standard in all cases.
For the calculation of percent of administered dose, plasma volume was estimated to be 40% of blood volume, which was calculated as 7% of animal's body weight. At 2 and 24 hours the parent compound was detected in urine at 3.9% and 15.0% of the administered dose, showing that the kidney is a major organ of excretion for the prodrug (FIG. 17).
Plasma samples were obtained at 1 and 4 hours from separate mice. Urine was collected at 2 and 24 hours post administration from pairs of mice in metabolic cages. The plasma and urine samples were prepared and analyzed as described in Example 17.

A further data set deals with LNCaP xenografts. The experiment in a line: LNCaP xenograft in SCID mice, Q6DX2, equitoxic comparison (Example 27). The format is in vivo, C.B-17.SCID mice. Here is the method: All compounds except Suc-βAla-Leu-Ala-Leu-Dox (three levels) were dosed at two levels with the goal to get a dose response for all compounds.
Knowing that the LNCaP tumor bearing nude mice have weight loss, we chose very conservative dose levels for each compound estimated to be well-tolerated equitoxic doses based on earlier studies and SD-MTD results. The high dose level for repeat dosing is usually 80% of their SD-MTD, and the low dose level is 80% of the high dose level. Accordingly, groups of ten male CD17.SCID mice, subcutaneously injected with 2.5 million LNCaP cells, were treated intravenously with the compounds at the levels described in Table 22 at six day intervals for a total of two identical doses (Q6DX2).
LNCaP tumors grew well in SCID mice, but the SCID mice with LNCaP tumor xenografts experienced severe weight loss, as 80% of control mice had more than 25% of weight loss by the end of the study. Nevertheless, the efficacy of different treatments at approximately equitoxic levels were compared based on the time it took for 50% of mice to reach toxic weight loss and the total numbers of mice with toxic weight loss at the end of study.

A further data set has as its system normal ICR mice. The experiment in a line: Second single dose Maximum Tolerated Dose (SD-MTD) study, 49 days. The protocol:
In a second single dose Maximum Tolerated Dose (SD-MTD) study, groups of five normal ICR mice were administered intravenous bolus doses of Suc-βAla-Leu-Ala-Leu-Dox. The mice were observed daily for 49 days and body weights measured twice weekly.
In a second single dose Maximum Tolerated Dose (SD-MTD) study, groups of five normal ICR mice were administered intravenous bolus doses of Suc-Leu-Ala-Leu-Dox. The mice were observed daily for 49 days and body weights measured twice weekly.
In a second single dose Maximum Tolerated Dose (SD-MTD) study, groups of five normal ICR mice were administered intravenously bolus doses of Suc-Ile-Ala-Leu-Dox. The mice were observed daily for 49 days and body weights measured twice weekly.
In a second single dose Maximum Tolerated Dose (SD-MTD) study, groups of five normal ICR mice were administered intravenous bolus doses of Suc-βAla-Ile-Ala-Leu-Dox. The mice were observed daily for 49 days and body weights measured twice weekly.

The mark [4] stands for this setting: single IV bolus approximately 100 μmol/Kg.

Marks after values point to notes of the source that are not given here.

With `CC[C@H](C)[C@H](NC(=O)CCNC(=O)CCC(=O)O)C(=O)N[C@@H](C)C(=O)N[C@@H](CC(C)C)C(=O)N[C@H]1C[C@H](O[C@H]2C[C@](O)(C(=O)CO)Cc3c(O)c4c(c(O)c32)C(=O)c2c(OC)cccc2C4=O)O[C@@H](C)[C@H]1O` [Suc-βAla-Ile-Ala-Leu-Dox], the “Ratio Ball-1:Namalwa” value in the data set with Namalwa cells (CD10pos) was determined as 172. For the same compound, in data set [1] (40 mg/kg (22 Dox equi) Q7D × 3), the “Tumor Weight (mg) D22” value is recorded as “D22: 152.1 ± 19.3 mg”. The “TGI D22” value in data set [1] (40 mg/kg (22 Dox equi) Q7D × 3, listed as Suc-bAla-Ile-Ala-Leu-Dox) is recorded as 77.5 ± 27.5%. Moreover, the “Survivor D36” value in data set [1] (40 mg/kg Q7D × 3, N 8) is given as “D36: 8**”. Further, the “Toxic Endpoint” value in data set [1] (40 mg/kg Q7D × 3, >20% body weight loss) is 0. Further, in data set [1] (40 mg/kg Q7D × 3, tumors reaching 1000 mg), the “Cancer Endpoint” value is on record as 0. In data set [2] (mice), the “Major Plasma Metabolite” value is given as “Leu-Dox”. In addition, in data set [2] (setting [4]), the “Plasma AUC0-6 hr of AL-Dox or AG-Dox*” value worked out at 0.5 µM·h and the “Plasma AUC0-6 hr of L-Dox or G-Dox*” value came out at 8.5 µM·h. Besides, the “Plasma AUC0-6 hr of Dox” value in data set [2] (single IV bolus approximately 100 μmol/Kg of prodrug) turned out to be 1.5 µM·h. Moreover, the dose excreted in data set [3] (Urine (% adm. dose) 2 hr) came out at 12.7%. Besides, the dose excreted in data set [3] (Urine (% adm. dose) 24 hr) came to 4.81%. In the data set on LNCaP xenografts (50 mg/kg Q6DX2), the “% Weight Loss at the end of study” value was determined as 80% and the “Time: 50% Weight Loss” value came to 33 days. Moreover, in the data set with LNCaP xenografts (62 mg/kg Q6DX2), the “Time: 50% Weight Loss” value came to 12 days and the “Time: 100% Weight Loss” value worked out at 33 days. In addition, in the data set on normal ICR mice (100 mg/kg, by Day 21, groups of five), the “animals euthanized due to weight loss or paralysis” value is recorded as “three”. The “SD-MTD Molar Ratio (Dox=)” value with normal ICR mice (relative to doxorubicin on a molar basis) is recorded as 2.6.

The values are drawn from patent US20050267016A1, “CD-10 activated prodrug compounds” (priority 2001, published 2005).
